According to PMC8000282, “In Silico and In Vitro Tailoring of a Chitosan Nanoformulation of a Human Metabolic Enzyme” (Pharmaceutics, 2021):

Target: the molecule itself
Assay: SEC; HiLoad Superdex 200 HR column, 20 mM Na-Hepes, 200 mM NaCl, pH 7.0, 0.7 mL/min, 4 °C; relative molecular mass of the oligomeric forms estimated from a calibration curve with standard proteins

B1: human phenylalanine hydroxylase (enzyme, UniProt P00439 1-452, looked up)
chain: MSTAVLENPGLGRKLSDFGQETSYIEDNCNQNGAISLIFSLKEEVGALAKVLRLFEENDVNLTHIESRPSRLKKDEYEFFTHLDKRSLPALTNIIKILRHDIGATVHELSRDKKKDTVPWFPRTIQELDRFANQILSYGAELDADHPGFKDPVYRARRKQFADIAYNYRHGQPIPRVEYMEEEKKTWGTVFKTLKSLYKTHACYEYNHIFPLLEKYCGFHEDNIPQLEDVSQFLQTCTGFRLRPVAGLLSSRDFLGGLAFRVFHCTQYIRHGSKPMYTPEPDICHELLGHVPLFSDRSFAQFSQEIGLASLGAPDEYIEKLATIYWFTVEFGLCKQGDSIKAYGAGLLSSFGELQYCLSEKPKLLPLELEKTAIQNYTVTEFQPLYYVAESFNDAKEKVRNFAATIPRPFSVRYDPYTQRIEVLDNTQQLKILADSINSEIGILCSALQKIK
notes: human phenylalanine hydroxylase (hPAH), expressed in E. coli as a fusion protein; a His tag is inferred from pTrcHis and the Ni resin; The tetrameric fraction from SEC was used as the fusion protein; also called hPAH; Human PAH; source: E. coli, fusion protein, purified (Ni-chelating resin, SEC)
  stoichiometry N: 4
